The nature of data set [1]: Tolerability. The following applies: in vivo.
In data set [2] the test system is prostaglandin E2 production in mouse calvariae. In words: Inhibitory effect on prostaglandin E2 production stimulated by PTH in organ cultures of mouse calvariae. It counts as cell-based. As for the experimental part: Organ cultures of mouse calvariae are first prepared according to the principles of U. L. Ivey, D. R. Wright, A. H. Tashjian, J. Clin. Invest. 58:1327 (1976) as follows:
Frontal and parietal bones are dissected from neonatal (5 to 6-day-old) mice (strain CD-1), split along the sagittal suture, and cultured in 2 ml of BGJ-medium containing 1 mg/ml bovine serum albumin, penicillin and streptomycin in 35 mm plastic tissue culture wells. […]
The cells are cultured for another 48 hours. During the entire culture period, the multi-well dishes are shaken on a rocker platform (15 oscillations/min) in a humidified atmosphere of 5% CO2 in air at 37° C. The calvaria-conditioned medium is harvested and placed at 4° C.
An aliquot of the medium is then assayed for prostaglandin E2 using a standard radioimmunossay. Prostaglandin E2 levels are reduced.

The molecule `C[C@@H](O)[C@@H]1NC(=O)[C@H](CCCCN)NC(=O)[C@@H](Cc2c[nH]c3ccccc23)NC(=O)[C@H](Cc2ccccc2)NC(=O)[C@@H](NC(=O)[C@H](N)Cc2ccccc2)CSSC[C@@H](C(=O)N[C@H](CO)[C@@H](C)O)NC1=O` [Compound IVa] gave a tolerated dose in data set [1] of at least 1 mg.

B1: PTH: parathyroid hormone used to stimulate prostaglandin E2 production (protein, UniProt P01270 32-115, looked up)
Parathyroid hormone: SVSEIQLMHNLGKHLNSMERVEWLRKKLQDVHNFVALGAPLAPRDAGSQRPRKKEDNVLVESHEKSLGEADKADVNVLTKAKSQ
modifications: Parathyroid hormone
notes: parathyroid hormone used to stimulate prostaglandin E2 production
Consider B1, for which the PGE2 synthesis in data set [2] (PTH 10^-7 M alone (so in the source)) worked out at 340 pg/mL; in data set [2] (PTH 10^-10 M alone), 50 pg/mL.

The values are drawn from patent US5145837A, “Treatment of arthritis” (Sandoz Ltd., priority 1988, dated 1992).
